Our source for the protein stability index values is the supplement of paper PMC10567573.

The chains are these.
B1: EPB41L3 (parent)
chain: KKFLTLGSKFRYSGRTQAQTRRAS
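Also: lentivirally expressed fusions sorted by FACS into six bins by GFP to DsRed ratio, PSI derived from sequencing read proportions per bin multiplied by bin number.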

In this series the parent is B1. Briefly: protein stability index of a GFP-peptide fusion (GPS, HEK-293T) (PSI 1-6); higher = more stable. Conditions: c terminus: a fixed tail appended.
As for KKFLTLGSKFRYSGRTQAATRRAS, the protein stability index was 2.68.

As for KKFLTLGSKFRYSGRTQACTRRAS, the protein stability index came out at 2.77. For KKFLTLGCKFRYSGRTQAQTRRAS the value was 2.04; for KKFLTLGKKFRYSGRTQAQTRRAS, 2.56; for KKFLTLGEKFRYSGRTQAQTRRAS, 3.26.

Take KKFLTLGFKFRYSGRTQAQTRRAS: the protein stability index was found to be 2.43. For the variant KKFLTLGIKFRYSGRTQAQTRRAS, the protein stability index stood at 2.33. For the variant KKFLTLGRKFRYSGRTQAQTRRAS, the protein stability index amounted to 3.46.

For KKFLTLGVKFRYSGRTQAQTRRAS, the protein stability index turned out to be 2.81. To KKFLTLGHKFRYSGRTQAQTRRAS belongs 3.01; to KKFLTLGNKFRYSGRTQAQTRRAS, 2.89; to KKFLTLGYKFRYSGRTQAQTRRAS, 3.4. Consider KKFLTLGTKFRYSGRTQAQTRRAS, for which the protein stability index turned out to be 2.88. To KKFLTLGPKFRYSGRTQAQTRRAS belongs 2.16; to KKFLTLGLKFRYSGRTQAQTRRAS, 2.17. To KKFLTLGMKFRYSGRTQAQTRRAS belongs 2.74.

Turning to KKFLTLGQKFRYSGRTQAQTRRAS, the protein stability index worked out at 2.78. To KKFLTLGDKFRYSGRTQAQTRRAS belongs 2.86. To KKFLTLGGKFRYSGRTQAQTRRAS belongs 2.81; to KKFLTLGAKFRYSGRTQAQTRRAS, 3.02. For KKFLTLGSKFRYKGRTQAQTRRAS the value was 3.96; for KKFLTLGSKFRYYGRTQAQTRRAS, 3.1.

Turning to KKFLTLGSKFRYGGRTQAQTRRAS, the protein stability index was determined as 2.88. For KKFLTLGSKFRYQGRTQAQTRRAS the value was 3.04; for KKFLTLGSKFRYAGRTQAQTRRAS, 2.63; for KKFLTLGSKFRYIGRTQAQTRRAS, 2.34. With KKFLTLGSKFRYFGRTQAQTRRAS, the protein stability index stood at 2.67. For KKFLTLGSKFRYDGRTQAQTRRAS the value was 2.85; for KKFLTLGSKFRYMGRTQAQTRRAS, 2.87; for KKFLTLGSKFRYPGRTQAQTRRAS, 2.55. For KKFLTLGSKFRYEGRTQAQTRRAS the value was 4.01; for KKFLTLGSKFRYNGRTQAQTRRAS, 3.95; for KKFLTLGSKFRYTGRTQAQTRRAS, 2.74. To KKFLTLGSKFRYVGRTQAQTRRAS belongs 2.01; to KKFLTLGSKFRYCGRTQAQTRRAS, 1.41.

Turning to KKFLTLGSKFRYHGRTQAQTRRAS, the protein stability index was 2.68.

As for KKFLTLGSKFRYWGRTQAQTRRAS, the protein stability index worked out at 2.91. To KKFLTLGSKFRISGRTQAQTRRAS belongs 3.69. For KKFLTLGSKFRASGRTQAQTRRAS the value was 4.58. To KKFLTLGSKFRRSGRTQAQTRRAS belongs 4.02; to KKFLTLGSKFRQSGRTQAQTRRAS, 3.82; to KKFLTLGSKFRKSGRTQAQTRRAS, 3.01. In the case of KKFLTLGSKFRTSGRTQAQTRRAS, the protein stability index amounted to 3.96. For KKFLTLGSKFRMSGRTQAQTRRAS the value was 3.9. To KKFLTLGSKFRFSGRTQAQTRRAS belongs 2.6; to KKFLTLGSKFRCSGRTQAQTRRAS, 2.54. To KKFLTLGSKFRPSGRTQAQTRRAS belongs 3.23; to KKFLTLGSKHRYSGRTQAQTRRAS, 4.22. Regarding KKFLTLGSKYRYSGRTQAQTRRAS, the protein stability index came out at 3.21. To KKFLTLGSKDRYSGRTQAQTRRAS belongs 3.88; to KKFLTLGSKSRYSGRTQAQTRRAS, 4.22. For KKFLTLGSKWRYSGRTQAQTRRAS the value was 2.77. For KKFLTLGSKPRYSGRTQAQTRRAS the value was 4.07; for KKFLTLGSKCRYSGRTQAQTRRAS, 3.11. Consider KKFLTLGSKMRYSGRTQAQTRRAS, for which the protein stability index was 3.59. For KKFLTLGSKVRYSGRTQAQTRRAS the value was 2.92; for KKFLTLGSKTRYSGRTQAQTRRAS, 3.54; for KKFLTLGSKKRYSGRTQAQTRRAS, 4.16. For KKFLTLGSKNRYSGRTQAQTRRAS the value was 3.59. KKFLTLGSKLRYSGRTQAQTRRAS: the protein stability index worked out at 4.09. On to KKFLTLGSKIRYSGRTQAQTRRAS, for which the protein stability index came out at 3.63. KKFLTLGSKQRYSGRTQAQTRRAS: the protein stability index was determined as 3.88. To KKFLTLGSCFRYSGRTQAQTRRAS belongs 1.66; to KKFLTLGSQFRYSGRTQAQTRRAS, 1.79; to KKFLTLGSNFRYSGRTQAQTRRAS, 1.99. On to KKFLTLGSMFRYSGRTQAQTRRAS, for which the protein stability index is 2.27. For KKFLTLGSTFRYSGRTQAQTRRAS the value was 2.13. For KKFLTLGSIFRYSGRTQAQTRRAS the value was 2.6; for KKFLTLGSFFRYSGRTQAQTRRAS, 2.13; for KKFLTLGSVFRYSGRTQAQTRRAS, 2.23. For KKFLTLGSHFRYSGRTQAQTRRAS the value was 2.11.

For KKFLTLGSDFRYSGRTQAQTRRAS, the protein stability index came to 2.01. To KKFLTLGSLFRYSGRTQAQTRRAS belongs 2.29. KKFLTLGSYFRYSGRTQAQTRRAS: the protein stability index amounted to 2.85. For KKFLTLGSAFRYSGRTQAQTRRAS the value was 1.96; for KKFLTLGSEFRYSGRTQAQTRRAS, 1.34; for KKFLTLGSKFRYSGRAQAQTRRAS, 2.53. For KKFLTLGSKFRYSGRGQAQTRRAS the value was 2.54. Take KKFLTLGSKFRYSGREQAQTRRAS: the protein stability index was 3.38. To KKFLTLGSKFRYSGRQQAQTRRAS belongs 2.94; to KKFLTLGSKFRYSGRWQAQTRRAS, 1.84. For KKFLTLGSKFRYSGRCQAQTRRAS the value was 2.2; for KKFLTLGSKFRYSGRRQAQTRRAS, 3.13. To KKFLTLGSKFRYSGRMQAQTRRAS belongs 2.99; to KKFLTLGSKFRYSGRVQAQTRRAS, 2.74. In the case of KKFLTLGSKFRYSGRKQAQTRRAS, the protein stability index came to 3.02. To KKFLTLGSKFRYSGRYQAQTRRAS belongs 3.72. To KKFLTLGSKFRYSGRIQAQTRRAS belongs 2.83; to KKFLTLGSKFRYSGRFQAQTRRAS, 2.94; to KKFLTLGSKFRYSGRHQAQTRRAS, 2.93.

As to KKFLTLGSKFRYSGRSQAQTRRAS, the protein stability index amounted to 3.36. For KKFLTLGSKFRYSGRNQAQTRRAS the value was 3.28; for KKFLTLGSKFRYSGRLQAQTRRAS, 2.52; for KKFLTLGSKFRYSGRDQAQTRRAS, 2.87.
